Non-standard residues stand in square brackets, D forms with d. Groups on a side chain read outwards from the residue. No end group written: not given here. *: point of attachment. C20 diacid = O=C(O)CCCCCCCCCCCCCCCCCCC(=O)*; C18 diacid = O=C(O)CCCCCCCCCCCCCCCCC(=O)*; C17 diacid = O=C(O)CCCCCCCCCCCCCCCC(=O)*; NMeY = CN[C@@H](Cc1ccc(O)cc1)C(=O)O; Aib = CC(C)(N)C(=O)O

Test [1] concerns the target T1, full-length human GIPR with an N-terminal FLAG tag (human, UniProt P48546 22-466).
T1 sequence (looked up): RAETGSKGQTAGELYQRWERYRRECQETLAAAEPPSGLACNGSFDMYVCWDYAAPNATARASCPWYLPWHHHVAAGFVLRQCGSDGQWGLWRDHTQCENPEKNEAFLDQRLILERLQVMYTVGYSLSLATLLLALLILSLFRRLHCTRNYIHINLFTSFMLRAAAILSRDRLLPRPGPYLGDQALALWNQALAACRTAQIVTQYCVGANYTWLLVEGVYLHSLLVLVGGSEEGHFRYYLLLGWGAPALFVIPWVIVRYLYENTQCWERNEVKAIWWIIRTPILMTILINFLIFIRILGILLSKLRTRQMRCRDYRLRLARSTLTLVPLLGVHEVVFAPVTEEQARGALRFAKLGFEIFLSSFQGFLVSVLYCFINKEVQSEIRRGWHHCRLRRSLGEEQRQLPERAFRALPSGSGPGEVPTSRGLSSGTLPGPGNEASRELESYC
The test can be described thus: cell-based or functional assay.

Test [2] has as its target full-length human GLP-1R with an N-terminal FLAG tag (human, UniProt P43220 24-463). The experiment in a line: cell-based or functional assay.

Consider [NMeY][Aib]EGTFISDYSIAK([G4gE-C18 diacid])DR[Aib]AQ[Aib]DFVNWLLAQKG-OH [Compound No. 80], for which the “Human GIPR cAMP EC50, HEK293T” value in test [1] came out at 0.3 pM. Besides, the “Human GLP1R cAMP EC50, HEK293T” value in test [2] came to 115 nM.

As to [NMeY][Aib]EGTFISDYSI[Aib]LDR[Aib]K([2OEGgEgE-C18 diacid])Q[Aib]NFVNWLLAQRG-OH [Compound No. 74], the “Human GIPR cAMP EC50, HEK293T” value in test [1] stood at 0.5 pM. Further, the “Human GLP1R cAMP EC50, HEK293T” value in test [2] amounted to 468 nM.

For YXEGTFISDYSIAXDKXAQXDFVNWLLAQKG (N-methyl Tyr 1; Aib at 2,17,20; Lys(G5-C18 diacid) at 14; C-terminal OH) [Compound No. 76], the “Human GIPR cAMP EC50, HEK293T” value in test [1] was 0.6 pM. In addition, the “Human GLP1R cAMP EC50, HEK293T” value in test [2] came out at 28.8 nM.

Consider YXEGTFISDYSIALDSXAQXDFVNWLLAQKG (N-methyl Tyr 1; Aib at 2,20; Lys(G5-C18 diacid) at 17; C-terminal OH) [Compound No. 78], for which the “Human GIPR cAMP EC50, HEK293T” value in test [1] was 0.3 pM. Further, the “Human GLP1R cAMP EC50, HEK293T” value in test [2] is 26.9 nM.

With YXEGTFISDYSIAXDRXAQXDFVNWLLAQQG (N-methyl Tyr 1; Aib at 2,17,20; Lys(G5-C18 diacid) at 14; C-terminal OH) [Compound No. 82], in test [1], the “Human GIPR cAMP EC50, HEK293T” value amounted to 0.3 pM. Also, the “Human GLP1R cAMP EC50, HEK293T” value in test [2] stood at 17.4 nM.

With YXEGTFISDYSIXLDSXAQXDFVNWLLAQKG (N-methyl Tyr 1; Aib at 2,13,20; Lys(G5-C18 diacid) at 17; C-terminal OH) [Compound No. 77], the “Human GIPR cAMP EC50, HEK293T” value in test [1] was determined as 0.3 pM. Further, the “Human GLP1R cAMP EC50, HEK293T” value in test [2] stood at 17 nM.

For [NMeY][Aib]EGTFISDYSIAK([2OEGgEgE-C17 diacid])DR[Aib]AQ[Aib]NFVNWLLAQR-OH [Compound No. 7], in test [1], the “Human GIPR cAMP EC50, HEK293T” value came to 0.4 pM. In test [2], the “Human GLP1R cAMP EC50, HEK293T” value came to 589 nM.

In the case of [NMeY][Aib]EGTFISDYSI[Aib]LDR[Aib]AQ[Aib]K([2OEGgEgE-C18 diacid])FVNWLLAQSPG-OH [Compound No. 85], the “Human GIPR cAMP EC50, HEK293T” value in test [1] came out at 0.4 pM. The “Human GLP1R cAMP EC50, HEK293T” value in test [2] was 41.7 nM.

As for [NMeY][Aib]EGTFISDYSIALDR[Aib]AQ[Aib]K([2OEGgEgE-C18 diacid])FVNWLLAQSPG-OH [Compound No. 86], in test [1], the “Human GIPR cAMP EC50, HEK293T” value worked out at 0.3 pM. In test [2], the “Human GLP1R cAMP EC50, HEK293T” value was 58.9 nM.

Consider [NMeY][Aib]EGTFISDYSI[Aib]LDR[Aib]AQ[Aib]NFVNWLLAQK([2OEGgEgE-C20 diacid])PSSGAPPPS-NH2 [Compound No. 69], for which the “Human GIPR cAMP EC50, HEK293T” value in test [1] is 0.8 pM. For the same molecule, the “Human GLP1R cAMP EC50, HEK293T” value in test [2] is 102 nM.

In the case of YXEGTFISDYSIAXDRXAQXDFVNWLLAQSPG (N-methyl Tyr 1; Aib at 2,17,20; Lys(G5-C18 diacid) at 14; C-terminal OH) [Compound No. 84], the “Human GIPR cAMP EC50, HEK293T” value in test [1] is 0.2 pM. Also, in test [2], the “Human GLP1R cAMP EC50, HEK293T” value turned out to be 58.9 nM.

Consider [NMeY][Aib]EGTFISDYSI[Aib]LDR[Aib]K([2OEGgEgE-C18 diacid])Q[Aib]DFVNWLLAQRG-OH [Compound No. 73], for which, in test [1], the “Human GIPR cAMP EC50, HEK293T” value was found to be 0.3 pM. For the same molecule, the “Human GLP1R cAMP EC50, HEK293T” value in test [2] is 363 nM.

Consider [NMeY][Aib]EGTFISDYSIAKDR[Aib]AQ[Aib]NFVNWLLAQK-NH2 (not fully specified (residue 14)) [Compound No. 6], for which the “Human GIPR cAMP EC50, HEK293T” value in test [1] stood at 0.4 pM. For the same molecule, the “Human GLP1R cAMP EC50, HEK293T” value in test [2] is 83.2 nM.

Consider YXEGTFISDYSIAXDRXAQXDFVNWLLAQRPSSG (N-methyl Tyr 1; Aib at 2,17,20; Lys(G5-C18 diacid) at 14; C-terminal OH) [Compound No. 70], for which the “Human GIPR cAMP EC50, HEK293T” value in test [1] was 0.2 pM. Further, in test [2], the “Human GLP1R cAMP EC50, HEK293T” value amounted to 43.7 nM.

The record behind these values is patent publication US20230143604A1, “QW DOSING OF GIP RECEPTOR AGONIST PEPTIDE COMPOUNDS AND USES THEREOF” (TAKEDA PHARMACEUTICAL COMPANY LIMITED, priority 2020, published 2023).
